Reference: patent US20120114665A1

Target: T1, penta-his-tagged hRANKL (human)
T1 sequence: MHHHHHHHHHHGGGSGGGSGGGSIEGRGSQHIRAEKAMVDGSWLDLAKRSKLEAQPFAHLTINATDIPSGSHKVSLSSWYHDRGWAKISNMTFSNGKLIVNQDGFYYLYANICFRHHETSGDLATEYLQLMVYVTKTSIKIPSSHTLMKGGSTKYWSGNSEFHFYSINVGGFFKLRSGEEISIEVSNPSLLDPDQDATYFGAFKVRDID
Assay: competition ELISA: 150 pM his-hRANKL pre-mixed with antibody, free RANKL detected on hRANK-hFc plate

Chain of Control: Human anti-hRANKL mAb, SEQ ID NO: 2 and 4 of U.S. Pat. No. 7,364,736 (antibody) (VH): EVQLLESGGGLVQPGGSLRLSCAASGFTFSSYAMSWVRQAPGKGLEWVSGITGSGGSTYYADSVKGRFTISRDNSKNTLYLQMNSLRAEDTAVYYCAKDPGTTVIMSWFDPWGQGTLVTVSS
Chain of Control: Human anti-hRANKL mAb, SEQ ID NO: 2 and 4 of U.S. Pat. No. 7,364,736 (antibody) (VL): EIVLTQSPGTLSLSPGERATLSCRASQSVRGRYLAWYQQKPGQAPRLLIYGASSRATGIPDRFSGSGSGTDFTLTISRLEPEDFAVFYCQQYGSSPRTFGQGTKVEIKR

IC50: 0.095 nM
Substance: Control: Human anti-hRANKL mAb, SEQ ID NO: 2 and 4 of U.S. Pat. No. 7,364,736 (antibody)
